# B1: PSMB1195 (antibody, human IgG1, kappa, V domains shown)
# VH: EVQLVESGGGLVKPGGSLRLSCAASGFTFSSYSLNWVRQAPGKGLEWVSSISSSSSYISYADAVKGRFTISRDNAKNSLYLQMNSLRAEDTAVYYCARDRGFLEDYYYYYGMDVWGQGTTVTVSS
# VL: DIVMTQSPSSVSASVGDRVTITCRASQGISNWLAWYQQKPGKAPKLLIYVASSLQSGVPSRFSGSGSGTDFSLTISSLQPEDFATYYCQQAYSFPLTFGGGTKVEIKR
# notes: huIgG1, kappa light chain
# B2: PSMB1183 conjugated to maleimide-PEG4-vcPAB-MMAF (antibody, human IgG1, lambda, V domains shown)
# VH: QVQLQESGPGLVKSSETLSLTCTVSGGSISSYYWNWIRQPAGKGLEWIGRIYSSGNTDYNPSLKSRVTMSVDTSKNQFSLKLISVTAADTAVYYCARGRGANVGLFDYWGQGTLVTVSS
# VL: QSALTQPPSVSGAPGQRVTISCTGSNSNIGANYDVHWYQHLPGTAPKLLIYGNINRPLGVPDRFSGSRSGTSASLAITGLQAEDEADYYCQSYDFSLSGSVFGVGTKLTVLG
# modifications: maleimide-PEG4-vcPAB-MMAF and N-ethyl maleimide on reduced cysteines (sites not given)
# B3: PSMB1183 (antibody, human IgG1, lambda, V domains shown)
# VH: QVQLQESGPGLVKSSETLSLTCTVSGGSISSYYWNWIRQPAGKGLEWIGRIYSSGNTDYNPSLKSRVTMSVDTSKNQFSLKLISVTAADTAVYYCARGRGANVGLFDYWGQGTLVTVSS
# VL: QSALTQPPSVSGAPGQRVTISCTGSNSNIGANYDVHWYQHLPGTAPKLLIYGNINRPLGVPDRFSGSRSGTSASLAITGLQAEDEADYYCQSYDFSLSGSVFGVGTKLTVLG
# notes: huIgG1, lambda light chain
# B4: PSMB1183 conjugated to MC-GGFG-DX8951 (antibody, human IgG1, lambda, V domains shown)
# VH: QVQLQESGPGLVKSSETLSLTCTVSGGSISSYYWNWIRQPAGKGLEWIGRIYSSGNTDYNPSLKSRVTMSVDTSKNQFSLKLISVTAADTAVYYCARGRGANVGLFDYWGQGTLVTVSS
# VL: QSALTQPPSVSGAPGQRVTISCTGSNSNIGANYDVHWYQHLPGTAPKLLIYGNINRPLGVPDRFSGSRSGTSASLAITGLQAEDEADYYCQSYDFSLSGSVFGVGTKLTVLG
# modifications: MC-GGFG-DX8951 on reduced cysteines, DAR 8.0
# B5: PSMB1154 conjugated to MC-GGFG-DX8951 (antibody, human IgG1, lambda, V domains shown)
# VH: EVQLVESGGGEVQPGRSLRLTCAVSGFTLSRYGMHWVRQAPGKGLEWAALISYDGSNRYYADSVKGRFTISRDNSKNTVFLQMNSLRAEDTAVYYCARERESSGWFEGYFDYWGQGTTVTVSS
# VL: QLVLTQPPSVSVAPGQTARITCGGNNIGSKSVHWYQQKPGQAPVLVVYDNSDRPSGIPERFSGSNSGNTATLTISRVEVGDEADYYCQVWDSSSDHVVFGGGTKLTVLG
# modifications: MC-GGFG-DX8951 on reduced cysteines, DAR 8.0
# B6: PSMB1154 (antibody, human IgG1, lambda, V domains shown)
# VH: EVQLVESGGGEVQPGRSLRLTCAVSGFTLSRYGMHWVRQAPGKGLEWAALISYDGSNRYYADSVKGRFTISRDNSKNTVFLQMNSLRAEDTAVYYCARERESSGWFEGYFDYWGQGTTVTVSS
# VL: QLVLTQPPSVSVAPGQTARITCGGNNIGSKSVHWYQQKPGQAPVLVVYDNSDRPSGIPERFSGSNSGNTATLTISRVEVGDEADYYCQVWDSSSDHVVFGGGTKLTVLG
# notes: huIgG1, lambda light chain
# B7: PSMB1154 conjugated to maleimide-PEG4-vcPAB-MMAF (antibody, human IgG1, lambda, V domains shown)
# VH: EVQLVESGGGEVQPGRSLRLTCAVSGFTLSRYGMHWVRQAPGKGLEWAALISYDGSNRYYADSVKGRFTISRDNSKNTVFLQMNSLRAEDTAVYYCARERESSGWFEGYFDYWGQGTTVTVSS
# VL: QLVLTQPPSVSVAPGQTARITCGGNNIGSKSVHWYQQKPGQAPVLVVYDNSDRPSGIPERFSGSNSGNTATLTISRVEVGDEADYYCQVWDSSSDHVVFGGGTKLTVLG
# modifications: maleimide-PEG4-vcPAB-MMAF and N-ethyl maleimide on reduced cysteines (sites not given)
# B8: PSMB1156 conjugated to maleimide-PEG4-vcPAB-MMAF (antibody, human IgG1, lambda, V domains shown)
# VH: EVQLVESGGGVVQPGRSLRLSCAASGFTFTSYGMHWVRQAPGKGLEWVAVISYDGSNKYYADSVKGRFTISRDNSKNTLYLQMNSLRAEDTAVYYCAREHYDSSGYYHGYYGMDVWGQGTTVTVSS
# VL: not shown
# modifications: maleimide-PEG4-vcPAB-MMAF and N-ethyl maleimide on reduced cysteines (sites not given)
# B9: PSMB1156 (antibody, human IgG1, lambda, V domains shown)
# VH: EVQLVESGGGVVQPGRSLRLSCAASGFTFTSYGMHWVRQAPGKGLEWVAVISYDGSNKYYADSVKGRFTISRDNSKNTLYLQMNSLRAEDTAVYYCAREHYDSSGYYHGYYGMDVWGQGTTVTVSS
# VL: not shown
# notes: huIgG1, lambda light chain
# B10: PSMB1156 conjugated to MC-GGFG-DX8951 (antibody, human IgG1, lambda, V domains shown)
# VH: EVQLVESGGGVVQPGRSLRLSCAASGFTFTSYGMHWVRQAPGKGLEWVAVISYDGSNKYYADSVKGRFTISRDNSKNTLYLQMNSLRAEDTAVYYCAREHYDSSGYYHGYYGMDVWGQGTTVTVSS
# VL: not shown
# modifications: MC-GGFG-DX8951 on reduced cysteines, DAR 8.0
# B11: PSMB1098 (antibody, human IgG1, kappa, V domains shown)
# VH: QVQLVESGGGVVQPGRSLRLSCAASGFTFSTYGMHWVRQAPGKGLEWVAFISYDGSNKYYADSVKGRFTISRDNSKHTLYLQMNSLRAEDTAVYYCAGRDNLRFLEWFMDVWGQGTTVTVSS
# VL: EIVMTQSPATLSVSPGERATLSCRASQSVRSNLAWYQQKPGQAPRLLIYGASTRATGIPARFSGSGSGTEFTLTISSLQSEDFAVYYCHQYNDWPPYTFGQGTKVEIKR
# notes: huIgG1, kappa light chain
# B12: PSMB1157 conjugated to maleimide-PEG4-vcPAB-MMAF (antibody, human IgG1, lambda, V domains shown)
# VH: EVQLVESGGGVVQPGRSLRLSCAASVRTFSGYGMHWVRQVPGKGLEWVAVISYDGSNRYYADSVKGRFTISRDNSKNTLYLQMNSLRTEDTAVYYCARDGNWGSLDLYFDLWGRGTLVTVSS
# VL: QSVLTQPPSVSGAPGQRVTISCTGSSSNIGADYDVHWYQQLPGTAPKLLIYVNNNRPSGVPDRFSGSRSGTSASLAITGLQADDEADYYCQSYDNTLSGVVFGGGTKLTVLG
# modifications: maleimide-PEG4-vcPAB-MMAF and N-ethyl maleimide on reduced cysteines (sites not given)
# B13: PSMB1157 conjugated to MC-GGFG-DX8951 (antibody, human IgG1, lambda, V domains shown)
# VH: EVQLVESGGGVVQPGRSLRLSCAASVRTFSGYGMHWVRQVPGKGLEWVAVISYDGSNRYYADSVKGRFTISRDNSKNTLYLQMNSLRTEDTAVYYCARDGNWGSLDLYFDLWGRGTLVTVSS
# VL: QSVLTQPPSVSGAPGQRVTISCTGSSSNIGADYDVHWYQQLPGTAPKLLIYVNNNRPSGVPDRFSGSRSGTSASLAITGLQADDEADYYCQSYDNTLSGVVFGGGTKLTVLG
# modifications: MC-GGFG-DX8951 on reduced cysteines, DAR 8.0
# B14: PSMB1157 (antibody, human IgG1, lambda, V domains shown)
# VH: EVQLVESGGGVVQPGRSLRLSCAASVRTFSGYGMHWVRQVPGKGLEWVAVISYDGSNRYYADSVKGRFTISRDNSKNTLYLQMNSLRTEDTAVYYCARDGNWGSLDLYFDLWGRGTLVTVSS
# VL: QSVLTQPPSVSGAPGQRVTISCTGSSSNIGADYDVHWYQQLPGTAPKLLIYVNNNRPSGVPDRFSGSRSGTSASLAITGLQADDEADYYCQSYDNTLSGVVFGGGTKLTVLG
# notes: huIgG1, lambda light chain
# B15: PSMB1088 (antibody, human IgG1, kappa, V domains shown)
# VH: EVQLVESGGGVVQPGRSLRLSCAASGFTFSSYDMHWVRQAPGKGLEWVTVISFDGSNKYYVDSVKGRFTISRDNSKNTLYLQMNSLRAEDTAVYYCARTYYDILTGYSHYSYGMDVWGQGTTVTVSS
# VL: EIVMTQSPSSLSASVGDRVTITCRASQGISNYLAWYQQKPGKVPKLLIYATSTLQSGVPSRFSGSGSGTDFILTISSLQPEDVANYYCQKYNSAPFTFGPGTKVEIKR
# notes: huIgG1, kappa light chain
# B16: PSMB1113 (antibody, human IgG1, kappa, V domains shown)
# VH: EVQLVESGGGLVKPGGSLRLSCAASGFTLSIYSMNWVRQAPGKGLEWVSSISSSSSYIFYADSVKGRFTISRDNAKNSLFLQMNSLRAEDTAVYYCARSSYGADYWGQGTLVTVSS
# VL: EIVMTQSPSSLSASVGDRVTITCRASQDITNFLAWYQQKPGKVPKLLIYTASTLQSGVPSRFSGSGSGTDFTLTISSLQPEDVATYYCQKYNSAPLTFGGGTKLEIKR
# notes: huIgG1, kappa light chain
# How the values were obtained:
# [1] = target: T1, human prostate-specific membrane antigen (PSMA), full length, on cells (human, UniProt Q04609 1-750); experiment: flow cytometry on C4-2B cells (high PSMA), anti-human AF647 detection, four-parameter fit
# T1 construct: also called FOLH1; PSMA on C4-2B cells
# T1 sequence (Q04609 whole entry): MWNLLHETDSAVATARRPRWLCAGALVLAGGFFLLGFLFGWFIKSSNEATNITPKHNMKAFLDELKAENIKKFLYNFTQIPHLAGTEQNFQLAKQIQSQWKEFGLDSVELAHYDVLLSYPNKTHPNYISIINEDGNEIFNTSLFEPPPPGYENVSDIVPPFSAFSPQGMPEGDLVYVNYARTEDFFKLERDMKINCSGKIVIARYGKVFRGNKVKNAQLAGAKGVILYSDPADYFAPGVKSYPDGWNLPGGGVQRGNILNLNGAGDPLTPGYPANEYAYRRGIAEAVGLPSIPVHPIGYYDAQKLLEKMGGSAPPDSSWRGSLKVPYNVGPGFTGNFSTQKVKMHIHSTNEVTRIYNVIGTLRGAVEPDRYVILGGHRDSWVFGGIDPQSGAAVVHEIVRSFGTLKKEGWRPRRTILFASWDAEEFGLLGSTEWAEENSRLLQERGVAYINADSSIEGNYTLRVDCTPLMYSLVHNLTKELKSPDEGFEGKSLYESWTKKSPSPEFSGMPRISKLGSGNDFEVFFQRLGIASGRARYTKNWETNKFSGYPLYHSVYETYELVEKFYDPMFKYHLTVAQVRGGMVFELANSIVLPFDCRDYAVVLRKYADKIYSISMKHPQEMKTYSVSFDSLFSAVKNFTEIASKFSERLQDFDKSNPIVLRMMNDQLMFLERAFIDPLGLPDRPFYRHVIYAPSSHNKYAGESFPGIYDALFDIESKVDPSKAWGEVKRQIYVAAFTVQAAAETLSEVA
# Experimental: The affinity of the purified antibodies was also determined on C4-2B, a cell line with high PSMA levels. Briefly, C4-2B cells were washed once with 1×PBS and incubated with 3 mls/T150 flask of cell dissociation buffer until detached, the cells were collected and strained through a […] sieve. Cells were resuspended at 0.5×10e6 cells/mL in staining buffer (BD #554657) and seeded at 25,000 cells/well in V bottom plate (Corning 3894). To each well, 50 μl of Ab 4-fold serially diluted in staining buffer from 120 nM (60 nM final) were added at 2× final concentration. Control mAbs were added at 2 μg/ml, 1 μg/ml final (controls were: —secondary only and isotype control). All primary antibodies were incubated with the cells for 60 min at 4° C. After the primary incubation, 100 μl staining buffer were added to all wells and the cells were washed by pelleting by centrifugation at 300×g 5 min and buffer removed by flicking the plate. Then cells were similarly washed again with 200 μl staining buffer. […] After 30 minutes incubation at 4° C., the cells were washed as described above with 150 ul staining buffer, followed by a final wash with 200 ul running buffer (Running buffer is staining buffer plus 1 mM EDTA and 0.1% pluronic acid). Cells were resuspended in 30 ul/well running buffer with 1:1000 Sytox Blue viability stain (Invitrogen #S34857) and stored at 4° C. until read on the flow cytometer. Plates were read on an IntelliCyt IQue 3 instrument. Briefly, cells were gated on live cells, then populations were gated on singlets. Antibody binding was assessed by AF647 fluorescence at 647 nm. Data was analyzed in GeneData Screener with signal/background AF647 fluorescence plotted against antibody concentration.
# [2] = target: T2, PSMW39, human PSMA ECD (Lys44-Ala750), N-6xHis (human, UniProt Q04609 44-750); experiment: SPR (Biacore 8K), antibody captured on goat anti-Fc C1 chip, PSMA ECD as analyte, 1:1 Langmuir fit
# T2 construct: Made in Expi-CHO cells; also called PSMW39.002; recombinant human ECD
# T2 sequence (Q04609 other isoform, or with tags, fused parts or gaps): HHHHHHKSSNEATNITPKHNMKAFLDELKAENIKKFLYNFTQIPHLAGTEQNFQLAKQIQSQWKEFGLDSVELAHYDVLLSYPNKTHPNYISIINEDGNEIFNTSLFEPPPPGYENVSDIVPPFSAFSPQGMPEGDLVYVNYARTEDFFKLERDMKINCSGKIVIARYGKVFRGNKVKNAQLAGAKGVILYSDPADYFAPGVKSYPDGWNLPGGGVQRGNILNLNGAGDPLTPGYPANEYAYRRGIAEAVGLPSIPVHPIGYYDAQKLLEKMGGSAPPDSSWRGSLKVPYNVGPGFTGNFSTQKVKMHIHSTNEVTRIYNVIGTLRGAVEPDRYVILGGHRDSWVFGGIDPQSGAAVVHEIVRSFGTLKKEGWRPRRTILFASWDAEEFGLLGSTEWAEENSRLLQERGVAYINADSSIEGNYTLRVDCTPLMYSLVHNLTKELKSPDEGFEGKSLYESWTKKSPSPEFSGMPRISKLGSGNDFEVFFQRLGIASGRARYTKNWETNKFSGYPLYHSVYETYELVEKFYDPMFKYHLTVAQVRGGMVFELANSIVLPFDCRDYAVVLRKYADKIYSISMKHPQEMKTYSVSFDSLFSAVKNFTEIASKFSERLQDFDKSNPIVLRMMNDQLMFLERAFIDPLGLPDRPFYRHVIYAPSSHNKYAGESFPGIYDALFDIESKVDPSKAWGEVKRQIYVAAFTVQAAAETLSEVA
# Experimental: The binding affinity of purified anti-PSMA antibodies to the recombinant human ECD was determined by surface plasmon resonance (SPR) using a BIACORE 8K instrument. The antibodies were captured on a goat anti-Fc antibody-modified C1 chip and titrated with 3-fold serial dilutions of PSMA antigen spanning concentrations of 1 nM to 11.1 nM. The association and dissociation were monitored for 3 and 15 minutes, respectively, using a flow rate of 50 μL/min. Raw binding data was referenced by subtracting the analyte binding signals from blanks and analyzed using a 1:1 Langmuir binding model using the Biacore Insight evaluation software to obtain the kinetics which were used to calculate the binding affinity.
# [3] = target: T1, human prostate-specific membrane …; experiment: cell-based or functional assay
# [4] = target: T1, human prostate-specific membrane …; experiment: cell-based or functional assay; remark: listed apart in the source
Binder,EC50 [1] [nM],Kd [2] [nM],koff [2] [s⁻¹],kon [2] [M⁻¹ s⁻¹],further results
B1,13.8,9.45,0.000101,10700,
B2,,,,,"C4-2B IC50 (cytotoxicity, vcMMAF ADC, DAR 3.6, 72 h) [3]: 0.03 nM"
B3,0.156,0.928,0.000401,432000,
B4,,,,,"IC50 (cytotoxicity on 22RV1 cells, DX8951 ADC, DAR 8, 6 d) [4]: 0.7 nM"
B5,,,,,"IC50 (cytotoxicity on 22RV1 cells, DX8951 ADC, DAR 8, 6 d) [4]: 0.8 nM"
B6,0.306,1.09,0.00019,174000,
B7,,,,,"C4-2B IC50 (cytotoxicity, vcMMAF ADC, DAR 4, 72 h) [3]: 0.03 nM"
B8,,,,,"C4-2B IC50 (cytotoxicity, vcMMAF ADC, DAR 2.9, 72 h) [3]: 0.04 nM"
B9,0.633,0.548,0.000168,306000,
B10,,,,,"IC50 (cytotoxicity on 22RV1 cells, DX8951 ADC, DAR 8, 6 d) [4]: 1.4 nM"
B11,2.46,0.54,2.85e-05,52700,
B12,,,,,"C4-2B IC50 (cytotoxicity, vcMMAF ADC, DAR 3.6, 72 h) [3]: 0.03 nM"
B13,,,,,"IC50 (cytotoxicity on 22RV1 cells, DX8951 ADC, DAR 8, 6 d) [4]: 2.2 nM"
B14,0.381,1.42,0.000274,194000,
B15,12.4,0.97,2.85e-05,29400,
B16,2.52,1.16,6.65e-05,57300,

# — patent publication US20230122503A1 (Janssen / Centocor, published 2023)
